First the molecules themselves.
B1: HDV Ribozyme (parent)
chain: GGCCGGCAUGGUCCCAGCCUCCUCGCUGGCGCCGGCUGGGCAACAUUCCGAGGGGACCGUCCCCUCGGUAAUGGCGAAUGGGACCCA

Variants of B1 are the subject of this series. The series can be described thus: self-cleavage, relative activity (ratio to wild type); higher = more cleavage; co-transcriptional.
Consider C36G G53C, for which the self-cleavage was determined as 0.158.
In the case of C22U G52U it was 0.795.
Take C3U C57U: the self-cleavage was 0.794.
As to G1U A71G, the self-cleavage is 0.429.
In the case of C30G G81C it was 0.032.
For the variant G1A C3A, the self-cleavage came to 0.0627.
In the case of G5A C13A it was 0.0369; in that of G1U G25C, 0.17; in that of C13U C36A, 0.132.
In the case of C3U A16G it was 0.675.
On to G1A C14G, for which the self-cleavage stood at 0.0665.
For C36A C63A, the self-cleavage was 0.237.
In the case of G25U C66U it was 0.151; in that of C19U A51U, 0.0923; in that of A16C G68U, 0.697.
In the case of C15U G50A it was 1.08; in that of A45G C86U, 0.806.
For G11A A45G, the self-cleavage was 0.403.
In the case of A70C A77U it was 0.237.
For the variant C22A U69G, the self-cleavage amounted to 0.394.
Take G59A A71U: the self-cleavage turned out to be 0.929.
In the case of G39U A56G it was 0.659; in that of C3G G55A, 0.76.
G17C G38A: the self-cleavage was 0.0396.
In the case of U9C C26U it was 1.17; in that of C22U G40C, 0.166; in that of C3G G31U, 0.0739.
In the case of G53C G74A it was 0.405; in that of G25C U46A, 0.
For G6A G28A, the self-cleavage amounted to 0.0817.
In the case of G74C A83G it was 0.104; in that of C49A G67U, 0.945.
In the case of G2U C26U it was 0.0852.
Consider U20C G25A, for which the self-cleavage was determined as 0.458.
Consider G10A G67A, for which the self-cleavage was 0.66.
In the case of C57U U69C it was 0.831; in that of G76U G81A, 0.506; in that of C30A A42G, 0.
Take U37A G67C: the self-cleavage stood at 0.128.
In the case of U9C C36U it was 0.682; in that of C26G A77C, 0.383; in that of C22U C49A, 0.665.
In the case of C61G U79G, the self-cleavage came out at 0.437.
With G74C A77U, the self-cleavage is 0.104.
For U47G A83C, the self-cleavage turned out to be 0.434.
Take G17U C86U: the self-cleavage came out at 0.612.
In the case of U65G G68U it was 0.491; in that of C62A G68A, 0.842.
In the case of C26A A43G it was 0.731; in that of G34U C49U, 0.136; in that of A77C G80C, 0.179.
Take G35C U47A: the self-cleavage is 0.0594.
In the case of G29U G68A it was 0.0886; in that of C13G G68U, 0.0978.
In the case of U27G G50C, the self-cleavage turned out to be 0.6.
In the case of C14A C36U it was 0.259; in that of C21U U79A, 0.0573.
Take G1A G52U: the self-cleavage turned out to be 0.162.
Regarding C33A G35A, the self-cleavage turned out to be 0.151.
In the case of C4A C14U it was 0.554.
In the case of G54C G68C it was 0.346; in that of G11U C64A, 0.256; in that of G35C A71G, 0.262.
In the case of G17A C44G it was 0.268.
Turning to C4U U60A, the self-cleavage is 0.831.
In the case of A8C G10C it was 0.623; in that of G11C U46G, 0.133.
Turning to A42G C58A, the self-cleavage was determined as 0.655.
Regarding G29U G50U, the self-cleavage came out at 0.12.
In the case of C19A C22A it was 0.112.
In the case of G2U G10C, the self-cleavage was found to be 0.0621.
In the case of G1C G80C it was 0.0475; in that of G25C A71G, 0.131; in that of C7A A42C, 0.19.
In the case of G2A C86G it was 0.0755; in that of G39U A43G, 0.0811; in that of U65G A87U, 1.12.
On to U20G C58G, for which the self-cleavage stood at 0.266.
In the case of C15A C62A it was 0.677; in that of C57A U65A, 1.09.
In the case of A43U G59C it was 0.502; in that of G10U G11A, 0.267.
In the case of U47A C75G it was 0.172.
Regarding U9G C32G, the self-cleavage is 0.317.
In the case of G1A G73A it was 0.128; in that of G31U A42C, 0.131; in that of C58A G59U, 0.89.
C18U A87C: the self-cleavage was determined as 0.692.
In the case of G35C A45G it was 0.237; in that of G28C G54C, 0.0519.
Take U46A G53C: the self-cleavage was 0.877.
In the case of G53A A77U it was 0.483; in that of U65A G76C, 1.11; in that of G50C G76U, 1.04.
As for C14U A45G, the self-cleavage was found to be 0.988.
Take C21U C33G: the self-cleavage stood at 0.104.
In the case of C49G A70G it was 0.733; in that of G28A C66G, 0.138.
Regarding C15A A16U, the self-cleavage came to 0.499.
With G17C C48U, the self-cleavage came out at 0.175.
In the case of C21G U72C it was 0.0426.
For U46C A56G, the self-cleavage worked out at 0.643.
Regarding G25A C36A, the self-cleavage is 0.0554.
U60G U65A: the self-cleavage was found to be 0.95.
For G34A A56G, the self-cleavage was 0.104.
For C36U A51G, the self-cleavage was 0.652.
In the case of G39A G55A it was 0.683; in that of G11A U23G, 0.13.
Consider A8C C22U, for which the self-cleavage worked out at 0.426.
C49A U65C: the self-cleavage is 0.923.
G39C C62G: the self-cleavage was 0.0573.
In the case of C18G C63A it was 0.145; in that of C3G G39U, 0.0989; in that of G5C G31A, 0.0755.
In the case of G2U A43G it was 0.0205; in that of U46G G59C, 0.831.
In the case of G6A A43G it was 0.277.
On to U23G G34A, for which the self-cleavage was found to be 0.0811.
In the case of G1A G54U it was 0.0475.
As for G28A C84A, the self-cleavage stood at 0.151.
In the case of U23G G73U it was 0.0604; in that of G6U C66G, 0.54.
G28C G34A: the self-cleavage was 0.146.
Turning to C3G C21U, the self-cleavage was 0.0326.
Take C15A C49U: the self-cleavage stood at 0.656.
In the case of C18U G34C it was 0.155; in that of G10C C64U, 0.892.
Take A8U G35U: the self-cleavage came to 0.262.
In the case of U20C G31U it was 0.141.
In the case of C41A G76C it was 1.06; in that of U20G G52U, 0.332; in that of G28U A83G, 0.0569.
In the case of C48G U79A, the self-cleavage was 0.911.
In the case of C7U C49A it was 0.974.
As to C57G G80U, the self-cleavage was determined as 0.25.
As to U9G G31A, the self-cleavage stood at 0.675.
As for A16C C30A, the self-cleavage came to 0.208.
In the case of U37C U46A it was 0.458.
Take C22G U65A: the self-cleavage worked out at 0.0504.
In the case of C22G U65G it was 0.155; in that of G10A A70G, 0.801; in that of U9G C21U, 0.332.
In the case of A43U U79A it was 0.122; in that of C22G G50A, 0.0504; in that of C32U A56G, 0.872.
On to A42G U65C, for which the self-cleavage amounted to 0.643.
In the case of C18G U20A it was 0.161; in that of G29A, 0.186.
In the case of C14G C26A it was 0.639.
In the case of C15A C85G it was 0.739; in that of G5A G34A, 0.0978; in that of G6A U65C, 0.554.
Turning to G38A G68A, the self-cleavage is 0.21.
In the case of G11C C21U it was 0.156; in that of U23A C48A, 0.88.
Regarding C36U U46A, the self-cleavage is 0.462.
In the case of A56C G73U it was 0.521; in that of G40U A45C, 0.295; in that of G59U A70G, 1.12.
On to C41U U79G, for which the self-cleavage turned out to be 0.369.
Consider G25C G31U, for which the self-cleavage is 0.214.
In the case of C21A U27C it was 0.0519; in that of C15A G29C, 0.0692; in that of G11U C85G, 0.689.
In the case of A56C C64G it was 0.831.
In the case of U23C G68A it was 0.87; in that of C19G U27A, 0.0615.

The values above are taken from the RNAGym collection of RNA variant scans (doi:10.7554/elife.80360).
